Emax data for one substance are collected here from patent CN110606891A.

The test addresses 鼠CLDN18.2 (mCLDN18.2), claudin-18 isoform A2.1 [Mus musculus], NP_001181850.1 (mouse) (UniProt P56857). The experiment in a line: cell ELISA on mCLDN18.2+ cells (Table 23), background. (ELISA stands for enzyme-linked immunosorbent assay.)
Sequence of UniProt P56857 (P56857 other isoform, or with tags, fused parts or gaps, form in doubt): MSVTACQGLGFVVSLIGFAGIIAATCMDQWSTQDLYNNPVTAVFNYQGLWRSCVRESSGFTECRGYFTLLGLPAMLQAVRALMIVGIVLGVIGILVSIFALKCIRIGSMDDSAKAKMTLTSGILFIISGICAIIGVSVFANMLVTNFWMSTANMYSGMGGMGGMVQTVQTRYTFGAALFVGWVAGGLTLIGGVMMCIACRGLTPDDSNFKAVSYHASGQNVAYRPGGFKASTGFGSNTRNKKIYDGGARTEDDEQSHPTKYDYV

Neg IgG (和靶点没有结合的非特异性抗体) (antibody): the Emax was 0.19.
